Test results: PMC4371549 (The Biochemical journal, 2010)
Like-named read-outs stand apart in the source and are kept apart here.

B1: p55 (natural protein, UniProt Q00013 1-466, looked up)
chain: MTLKASEGESGGSMHTALSDLYLEHLLQKRSRPEAVSHPLNTVTEDMYTNGSPAPGSPAQVKGQEVRKVRLIQFEKVTEEPMGITLKLNEKQSCTVARILHGGMIHRQGSLHVGDEILEINGTNVTNHSVDQLQKAMKETKGMISLKVIPNQQSRLPALQMFMRAQFDYDPKKDNLIPCKEAGLKFATGDIIQIINKDDSNWWQGRVEGSSKESAGLIPSPELQEWRVASMAQSAPSEAPSCSPFGKKKKYKDKYLAKHSSIFDQLDVVSYEEVVRLPAFKRKTLVLIGASGVGRSHIKNALLSQNPEKFVYPVPYTTRPPRKSEEDGKEYHFISTEEMTRNISANEFLEFGSYQGNMFGTKFETVHQIHKQNKIAILDIEPQTLKIVRTAELSPFIVFIAPTDQGTQTEALQQLQKDSEAIRSQYAHYFDLSLVNNGVDETLKKLQEAFDQACSSPQWVPVSWVY
B2: cytoplasmic domain of band 3 (domain or fragment, UniProt P02730 1-403, looked up)
chain: MEELQDDYEDMMEENLEQEEYEDPDIPESQMEEPAAHDTEATATDYHTTSHPGTHKVYVELQELVMDEKNQELRWMEAARWVQLEENLGENGAWGRPHLSHLTFWSLLELRRVFTKGTVLLDLQETSLAGVANQLLDRFIFEDQIRPQDREELLRALLLKHSHAGELEALGGVKPAVLTRSGDPSQPLLPQHSSLETQLFCEQGDGGTEGHSPSGILEKIPPDSEATLVLVGRADFLEQPVLGFVRLQEAAELEAVELPVPIRFLFVLLGPEAPHIDYTQLGRAAATLMSERVFRIDAYMAQSRGELLHSLEGFLDCSLVLPPTDAPSEQALLSLVPVQRELLRRRYQSSPAKPDSSFYKGLDLNGGPDDPLQQTGQLFGGLVRDIRRRYPYYLSDITDAFSP
B3: cytoplasmic domain of CD44 (domain or fragment, UniProt P16070 671-742, looked up)
chain: NSRRRCGQKKKLVINSGNGAVEDRKPSGLNGEASKSQEMVHLVNKESSETPDQFMTADETRNLQNVDMKIGV

How the values were obtained:
Assay in all cases: resonant mirror detection
complex of 4.1G and CaM [1] = target: T1, complex of 4.1G and CaM (human | , UniProt O43491 1-1005; P0DP23 1-149)
complex of 4.1G and CaM [2] = target: T1, complex of 4.1G and CaM; remark: listed apart in the source
[3] = target: recombinant 4.1R^135 (135kDa isoform of protein 4.1R) (human, UniProt P11171 1-864)
[4] = target: full length recombinant human protein 4.1G (human, UniProt O43491 1-1005)
full length recombinant human protein 4.1G, sequence (O43491 whole entry): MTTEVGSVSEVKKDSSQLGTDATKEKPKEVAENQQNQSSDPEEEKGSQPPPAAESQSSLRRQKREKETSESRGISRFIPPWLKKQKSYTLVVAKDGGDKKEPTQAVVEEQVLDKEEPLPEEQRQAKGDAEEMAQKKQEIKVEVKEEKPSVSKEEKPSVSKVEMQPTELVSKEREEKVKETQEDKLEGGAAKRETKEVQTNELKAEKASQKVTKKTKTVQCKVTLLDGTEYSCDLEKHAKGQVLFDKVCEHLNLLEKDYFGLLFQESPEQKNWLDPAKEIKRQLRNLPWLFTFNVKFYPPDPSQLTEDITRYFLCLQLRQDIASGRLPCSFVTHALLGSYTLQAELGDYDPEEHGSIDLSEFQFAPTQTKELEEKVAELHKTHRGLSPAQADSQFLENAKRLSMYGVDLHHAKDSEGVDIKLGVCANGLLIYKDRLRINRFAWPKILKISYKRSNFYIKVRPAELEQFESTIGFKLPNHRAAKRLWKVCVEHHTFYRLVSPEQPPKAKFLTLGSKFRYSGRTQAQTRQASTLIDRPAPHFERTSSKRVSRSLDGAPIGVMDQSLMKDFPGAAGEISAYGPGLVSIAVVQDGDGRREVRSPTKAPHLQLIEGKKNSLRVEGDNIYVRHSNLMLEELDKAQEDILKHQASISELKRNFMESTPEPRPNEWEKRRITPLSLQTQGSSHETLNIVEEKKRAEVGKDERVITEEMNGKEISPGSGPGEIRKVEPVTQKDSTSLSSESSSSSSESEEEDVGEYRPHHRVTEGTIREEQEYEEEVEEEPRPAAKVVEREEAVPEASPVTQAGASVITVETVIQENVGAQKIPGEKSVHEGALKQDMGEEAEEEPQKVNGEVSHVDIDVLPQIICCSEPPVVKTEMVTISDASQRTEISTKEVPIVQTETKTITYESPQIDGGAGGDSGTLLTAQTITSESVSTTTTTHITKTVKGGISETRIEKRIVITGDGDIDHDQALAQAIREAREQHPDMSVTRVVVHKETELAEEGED

recombinant 4.1R^135 (135kDa isoform of protein 4.1R), sequence (P11171 whole entry, canonical isoform): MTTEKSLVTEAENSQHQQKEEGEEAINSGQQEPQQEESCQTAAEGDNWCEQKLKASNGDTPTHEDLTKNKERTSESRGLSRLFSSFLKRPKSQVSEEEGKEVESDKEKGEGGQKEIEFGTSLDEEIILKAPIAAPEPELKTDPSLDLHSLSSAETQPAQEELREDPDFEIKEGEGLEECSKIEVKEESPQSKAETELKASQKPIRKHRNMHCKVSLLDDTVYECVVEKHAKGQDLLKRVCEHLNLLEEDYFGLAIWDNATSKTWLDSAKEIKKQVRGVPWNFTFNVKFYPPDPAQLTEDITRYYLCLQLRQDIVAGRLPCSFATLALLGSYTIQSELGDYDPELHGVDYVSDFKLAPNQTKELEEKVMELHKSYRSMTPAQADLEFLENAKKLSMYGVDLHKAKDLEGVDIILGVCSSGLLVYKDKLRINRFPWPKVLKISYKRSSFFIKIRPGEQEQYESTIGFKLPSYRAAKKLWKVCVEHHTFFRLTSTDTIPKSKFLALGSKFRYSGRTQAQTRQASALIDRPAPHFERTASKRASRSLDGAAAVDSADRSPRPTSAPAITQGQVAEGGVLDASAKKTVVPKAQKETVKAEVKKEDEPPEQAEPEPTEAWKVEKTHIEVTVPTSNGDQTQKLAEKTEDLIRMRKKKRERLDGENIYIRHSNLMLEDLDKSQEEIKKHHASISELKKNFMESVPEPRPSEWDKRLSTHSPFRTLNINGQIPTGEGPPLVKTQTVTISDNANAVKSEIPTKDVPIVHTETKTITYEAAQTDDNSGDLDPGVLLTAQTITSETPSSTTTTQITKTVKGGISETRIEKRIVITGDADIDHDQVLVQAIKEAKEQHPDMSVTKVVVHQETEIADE

| Binder | Kd (complex of 4.1G and CaM [1]) [nM] | koff (complex of 4.1G and CaM [1]) [s⁻¹] | kon (complex of 4.1G and CaM [1]) [M⁻¹ s⁻¹] | Kd (complex of 4.1G and CaM [2]) [nM] | koff (complex of 4.1G and CaM [2]) [s⁻¹] | kon (complex of 4.1G and CaM [2]) [M⁻¹ s⁻¹] | Kd [3] [nM] | koff [3] [s⁻¹] | kon [3] [M⁻¹ s⁻¹] | Kd [4] [nM] | koff [4] [s⁻¹] | kon [4] [M⁻¹ s⁻¹] |
| --- | --- | --- | --- | --- | --- | --- | --- | --- | --- | --- | --- | --- |
| RYMYRHKGTYHTNEAKGTEFAESADAALQGDPALQDAGDSSRKEYFI (domain or fragment, UniProt P04921 82-128, looked up) [cytoplasmic domain of glycophorin C] | 1250 | 0.015 | 12000 | 155 | 0.013 | 84000 | – | – | – | – | – | – |
| B1 | – | – | – | – | – | – | 248 | 0.0047 | 19000 | 181 | 0.0085 | 47000 |
| B2 | – | – | – | 127 | 0.064 | 510000 | 23 | 0.0071 | 310000 | 185 | 0.014 | 80000 |
| B3 | – | – | – | 197 | 0.014 | 71000 | 329 | 0.015 | 42000 | 178 | 0.0066 | 38000 |
